{
  "source": "paper PMC5686756",
  "about": "“IKKγ-Mimetic Peptides Block the Resistance to Apoptosis Associated with Kaposi's Sarcoma-Associated Herpesvirus Infection” (Journal of Virology, 2017)",
  "key": {"[1]": {"molecular_target": "T1, GB1–ks-vFLIP (Human herpesvirus 8 type P, UniProt F5HEZ4)", "T1 construct": "ks-vFLIP (residues 1 to 188) was PCR cloned into the EcoRI and XhoI sites of GB1-pBR22b; 6His (C); made in house; host or cells: E. coli BL21(DE3)", "T1 sequence (F5HEZ4 whole entry, the tested form may be a part)": "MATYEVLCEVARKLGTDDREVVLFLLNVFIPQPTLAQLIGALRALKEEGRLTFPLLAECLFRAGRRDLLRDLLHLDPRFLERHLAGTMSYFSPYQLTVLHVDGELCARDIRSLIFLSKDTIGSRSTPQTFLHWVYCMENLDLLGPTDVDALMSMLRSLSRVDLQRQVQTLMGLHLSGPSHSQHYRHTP", "assay": "biochemical", "assay_type": "binding, Kaposi's sarcoma-associated herpesvirus", "description": "We next sought to assess the affinity of spIKKγ for vFLIP using isothermal calorimetry (ITC).\nIsothermal calorimetry (ITC) experiments were performed using a Microcal VP-ITC micocalorimeter (MicroCal). For all binding reactions, syringe concentrations varied between ∼85 and 100 μM for IKKγ(150–272) and cell concentrations between ∼8 and 10 μM for GB1-vFLIP. Titrations consisted of an initial 2-μl injection, followed by 20 10-μl injections with stirring at 300 rpm. In competition assays, GB1–ks-vFLIP was first incubated with 20 μM spIKKγ and DMSO to 4% prior to loading into the cell and titration with IKKγ(150–272). All ITC binding experiments were performed in deionized water at 25°C owing to the buffer constraints of spIKKγ, GB1–ks-vFLIP, and IKKγ(150–272), where GB1–ks-vFLIP and IKKγ(150–272) were buffer matched by overnight dialysis, followed by the addition of 4% DMSO to each. […] Following collection, all data were analyzed using ORIGIN 70 software and fitted to a one-site binding model with each experiment performed at least in triplicate."}, "[2]": {"tested_on": "IKKγ", "assay": "Thermofluor assay, thermal denaturation of IKKγ alone", "assay_type": "physicochemical", "details": "various concentrations, SYPRO orange", "from_the_text": "FIG 2 vFLIP-IKKγ interaction and peptide thermofluor analysis. (A) (Left) Cartoon depiction of the ks-vFLIP–IKKγ heterotetramic complex (PDB code 3CL3). The IKKγ and ks-vFLIP monomers are shown in gray and wheat, respectively. (Right) The ks-vFLIP-IKKγ dimer interface highlighting cleft 1 (white) and cleft 2 (cyan). Residues essential for the formation of the cleft 1 interactions (H235, F238, D242, and K246) are colored magenta, and those that interact with cleft 2 (Q236 and E240) are colored blue. (B) IKKγ ks-vFLIP minimal interacting motif (residues 230 to 248) together with those forming the 30- and 21-mer peptides (pink and violet, respectively) used in the thermofluor studies. (C) Thermal denaturation profiles for ks-vFLIP (left) and IKKγ (right) at various concentrations. […] (D) Thermal denaturation of ks-vFLIP in the presence of various concentrations of IKKγ (left) and the 21-mer (pink) and 30-mer (violet) (right) peptides.\nEach experiment was repeated at least 3 times. All peptides were purchased from Eurogentec."}, "[3]": {"tested_on": "ks-vFLIP", "details": "IKKγ(150–272) at 30 μM; 30 μM ks-vFLIP unless otherwise stated, SYPRO orange; repeated at least 3 times", "protocol": "To achieve this, an unmodified 30-mer peptide (residues 224 to 253) was designed to encompass the interacting motif and neighboring residues along with a 21-mer (residues 226 to 248), only marginally longer than the motif itself (residues 230 to 248 [Fig. 2B]). These were commercially synthesized and their ability to associate with ks-vFLIP was assessed using a thermofluor assay (Fig. 2C and D).\nThermofluor studies were conducted using the MyIQ reverse transcription-PCR (RT-PCR) system (Bio-Rad) in a 96-well plate format. Trials were performed in which 30 μM ks-vFLIP (unless otherwise stated) was combined with either IKKγ or mimetic peptides (at the specified concentrations) prior to the addition of SYPRO orange diluted in a 1:1,000 (vol/vol) ratio and thermal denaturation. The data were subsequently processed using the Bio-Rad iQ5 software. Each experiment was repeated at least 3 times."}},
  "data": [
    {"molecule": "IKKγ(150–272): IKKγ fragment encompassing residues 150 to 272 (protein) LGELQESQSRLEAATKECQALEGRARAASEQARQLESEREALQQQHSVQVDQLRMQGQSVEAALRMERQAASEEKRKLAQLQVAYHQLFQEYDNHIKSSVVGSERKRGMQLEDLKQQLQQAEE", "values": [
      {"measurement": "apparent dissociation constant (Kd) of the vFLIP-IKKγ interaction in the presence of peptide", "setting": "[1]; GB1–ks-vFLIP preincubated with 20 μM spIKKγ, 4% DMSO, deionized water, 25°C, at least triplicate", "value": 30, "unit": "µM"},
      {"measurement": "binding affinity for ks-vFLIP, spIKKγ compared with IKKγ(150–272)", "setting": "[1]; ITC", "value": "nearly equivalent binding affinities"},
      {"measurement": "thermal denaturation response of IKKγ", "setting": "[2]", "value": "lack of a significant response"},
      {"measurement": "shift in melting temperature of ks-vFLIP", "setting": "[3]", "value": "~8", "unit": "°C"}
    ]}
  ]
}
